Assay results: article PMC8420772

What was measured:
[1] = biological target: MtMce4A_(39–140) (Mycobacterium tuberculosis H37Rv); assay: crystal structure; native protein, 7.5 mg ml^−1; 100 mM sodium HEPES, 100 mM LiCl2, 20% PEG 400 pH 7.5, 22°C; space group P6_(5), 2.9 Å
[2] = biological target: MtMce4A_(39–140) (Mycobacterium tuberculosis H37Rv); assay: SEC-MALS; in crystallization buffer (0.1 M MES, 0.7 M ammonium sulfate pH 6.0) after slow heating from 20 to 50°C (0.8°C per minute); supernatant on Superdex 200 10/300

Substance: MtMce4A_(39–140) (domain or fragment)
- stoichiometry N [1]: 2
- stoichiometry N [2]: 2
